Reference: the supplement of paper PMC9170038

The sequences below were run on MS2 coat protein (assay: apparent KD of MS2 coat protein; higher = weaker reporter binding). Conditions: Eterna round: R107; input ligand: theophylline 20 uM.
Outline: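 Designed RNA switches, transcribed on-chip from Illumina sequencing clusters, were titrated with SNAP-549-labelled MS2 coat protein from 0.7 or 1.5 nM to 3 µM in twofold steps. The solution was 100 mM Tris-HCl pH 7.5, 80 mM KCl, 4 mM MgCl2, with constant ligand or without it. Apparent KD is the median over each design's normalised cluster binding-curve fits.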

For “CAAGAGUUGUACAUUGUGAGGCGUCGGGAACGAGGACCGGUACGGCCGCCACUCGAAAAUUAACAUGAGGAUCACCCAUGUACAC [theeternabot_exclusion_MS2_Trp_A_35]”, which “apparent KD of MS2 coat protein” value is on record?
The value was 72.7 nM.

With “ACAUGAGGAUCACCCAUGUCAAGGCACGAUACCAGCUGAUCCCGUGGCCCUUGGCAGCGUCACGUUUGGUCCCGCGGAUGACACG [zczmullin]” as the sequence, how does the “apparent KD of MS2 coat protein” value read?
Its value is 111 nM.

For “UGAUAUGUAGGAAGGAGCGCAUACUUCACAUGAGGAUCACCCAUGUCAAGACGUGAGUCAGUGCAGGUAGGUCGCCUAGUUAUGA [Same State - Arginine B (Freestyle 20)]”, which “apparent KD of MS2 coat protein” value is on record?
The value was 41 nM.

With “AAUGUAUGGCACAUGAGGAUCACCCAUGUGCGAGGACCGGUACGGCCGCCACUCGGUCCUGGGAUCUUAAUACUAUACAUUAAUG [XTryp A #19]” as the sequence, how does the “apparent KD of MS2 coat protein” value read?
The value was 15.1 nM.

For “AAACGUUGCUGCGAUACCAGACAUGAGGAUCACCCAUGUACCAAGAAAACGUACAUAAAUGUCCCUUGGCAGCGCAGCAACGAAA [MAT - Exclusion Theophlline B - Mod of Eli - D28]”, which “apparent KD of MS2 coat protein” value is on record?
Its value is 511 nM.

Which “apparent KD of MS2 coat protein” value does the source give for “GGUGGGAGCAACGAUACCAGCUACAUGAGGAUCACCCAUGUGGAAUGGGAGUCAACAGCGAGCCCUUGGCAGCGUUAGACCCAAA [Bebeeserdi]” here?
Its value is 20.4 nM.

How did the “apparent KD of MS2 coat protein” value turn out when “UCACGUGGGAAUGAUACCAGCCACAUGAGGAUCACCCAUGUGCAUGGUGUGAGCUUCACGGGCCCUUGGCAGCAUUUCAAGUCGC [Agelaus]” was run?
The value was 93.1 nM.

How did the “apparent KD of MS2 coat protein” value turn out when “ACAUUUAACUGAAGGAGCGUGAAUAACAUGAGGAUCACCCAUGUAACUUAGAUUCUUAUAUCACAGGUAGGUCGCAGACUAAUGA [JR_ExcArginiB_Sub012]” was run?
Its value is 25.7 nM.

How did the “apparent KD of MS2 coat protein” value turn out when “AACAUGAGGAUCACCCAUGUCCUCGUGUACCGAGGACCGGUACGGCCGCCACUCGGUUCUCGCGAGGAUGGUCAAAGACUAUCCA [Omei Trp A SS B v4]” was run?
Its value is 643 nM.

Which “apparent KD of MS2 coat protein” value does the source give for “UAAUAUCACAUAUUAUGGGUGUAAUGUGAUACCAGCUAGGAAACUAGCCCUUGGCAGCACAUGAGGAUCACCCAUGUAAGCUGUA [(T1)'-(M)'-(T1)-(T2)-(M1)-(M2)-(T2)'_Design4_2/19/17]” here?
The value was 123 nM.

“AACACACCAAAUGAUACCAGCUACAACAUGAUACAAAACCACAUGAGGAUCACCCAUGUAAGCCCUUGGCAGCAUACUACUGUAA [theeternabot_exclusion_MS2_Theo_B_40]” was tested. Which “apparent KD of MS2 coat protein” value did it give?
Its value is 24.2 nM.

“GACCUUGCGGGCGCCCGCAAGGUUGCGGAUACCAGCGAGGUCCAUCGCCCUUGGCAGCCGAACAUGAGGAUCACCCAUGUCGGAC [Same State - Theophylline A Attempt #3 (HarryS)]” was tested. Which “apparent KD of MS2 coat protein” value did it give?
The value was 18.2 nM.

Which “apparent KD of MS2 coat protein” value does the source give for “GGAUAGGACACGGCCGCCACUGCGGCUAGAUACUAGCACAUUUCCUCACAUGAGGAUCACCCAUGUAGGACCGGGUGUCCUAUCG” here?
The value was 122 nM.

How did the “apparent KD of MS2 coat protein” value turn out when “UGCAUUAUACAUGGAUCACCCAUGUAGACACGAGGACCGGUACGGCCGCCACUCGGAAGAGGGAACAUGAGGAUCACCCAUGUGA [Try A SS t1]” was run?
The value was 73.1 nM.

Same assay, conditions: Eterna round: R107; input ligand: theophylline 2 mM

How did the “apparent KD of MS2 coat protein” value turn out when “CCCACAAGCACGGCCGCCACUAUAUUAAUUACUGUCCUAGAACAUGAGGAUCACCCAUGUUAAUGUAGGACCGGGUGCGGGCCCG [theeternabot_exclusion_MS2_Trp_B_7]” was run?
The value was 9.46 nM.

For “UGGUACAUGGCGGCCGCCACUUCACGUAAAAUAAAAACUUGAGGAACACCCAAGUAAUAAGUUGGGAGGACCGGGUCAUGUACCU”, which “apparent KD of MS2 coat protein” value is on record?
Its value is 39.1 nM.

Which “apparent KD of MS2 coat protein” value does the source give for “AAAAGAGGUGGAAGGAGCGGGAGACAUGAGGAUCACCCAUGUGAAGUAACGAAAGGUACAGCCCAGGUAGGUCGCCAUGUCGAAA [qxqamullin]” here?
The value was 40.4 nM.

How did the “apparent KD of MS2 coat protein” value turn out when “GGCCGAUGGUGCGAUACCAGCUUGAGUGUACUGGCCAGGUACAUGAGGAUCACCCAUGUAAGCCCUUGGCAGCGCGUCAAAGGCC [#1 Exclusion - Theophylline B Attempt #20 (HarryS)]” was run?
The value was 24.2 nM.

“ACCGCAUCCGUAUAGGAUGCGGCCCAUGAAGGAGCGUGGGAAACCACAGGUAGGUCGCAUGGACAUGAGGAUCACCCAUGUUAUU [Inception]” was tested. Which “apparent KD of MS2 coat protein” value did it give?
The value was 62.7 nM.

“UUAUAUAUGCGAAGGAGCGGGAAAUAUAUAUAUAUAAUCCUAACAUGAGGAUCACCCAUGUCCCAGGUAGGUCGCGCAUAUAUAG [12.C]” was tested. Which “apparent KD of MS2 coat protein” value did it give?
Its value is 76.6 nM.

For “AGACGAGAAGAGGAUUACCCAUGUACAGAAGGAGCGUCGUUGACGACAGGUAGGUCGCUGAGAACAUGAGGAUCACCCAUGUUGA [Arg A Ex t1]”, which “apparent KD of MS2 coat protein” value is on record?
Its value is 39.8 nM.

“ACAUGGGUCUGAAGGAGCGCGAUAACAUGAGGAUCACCCAUGUAAAAUGGAACAUGAUAAUCGCAGGUAGGUCGCAGUAAAACCC [Same State Arginine B GF 11]” was tested. Which “apparent KD of MS2 coat protein” value did it give?
Its value is 704 nM.

For “AAUGUGAAGGCGGCCGCCACUGAUAAUAGACAUGAGGAUCACCCAUGUAUAAAUCCUCAAUAAGACAGGACCGGGCCAACUACGU [Exclusion Tryptophan B GF 1]”, which “apparent KD of MS2 coat protein” value is on record?
The value was 136 nM.

How did the “apparent KD of MS2 coat protein” value turn out when “AACGAGUGGCGGCCAUUGGGUGAUCCUCUACGAGGACCGGUACGGCCGCCACUCGAUAACAUGAGGAUCACCCAUGUGCCGAUAA [|T'-M'-Trp-Ms2|_Design10b]” was run?
The value was 240 nM.

With “AAGGUGAUCCGUGAUACCAGCUCAACAUGAGGAUCACCCAUGUAAGCCUGGAAACAGGCGAGCCCUUGGCAGCACGGUUGCCAAG [(M)'-(Theo1)-(Ms2)-(Theo2)-(M'')-(T2)'_Design1]” as the sequence, how does the “apparent KD of MS2 coat protein” value read?
The value was 25.4 nM.

How did the “apparent KD of MS2 coat protein” value turn out when “UUCGUUGGCGAUCUGGGUUUACCAGAUCGGCGAGGACCGGUACGGCCGCCACUCGUGUUUUCUUUACAUGAGGAUCACCCAUGUU [SSTA #3]” was run?
Its value is 25.5 nM.

For “UCGCUCUGGGUGGGAUCCGGAGAUGUGGAAGGAGCGCUGGUUACAGCAGGUAGGUCGCCAACGGACAUGAGGAUCACCCAUGUAC [Same State - Arginine A (Freestyle 16)]”, which “apparent KD of MS2 coat protein” value is on record?
The value was 39.5 nM.
